Measurements from patent US20210069342A1 (LEGOCHEM BIOSCIENCES, published 2021).

Target: T1, BCMA-Fc, a recombinant protein where the extracellular domain of human BCMA protein is linked to human Fc (human, UniProt Q02223 1-54)
T1 construct: extracellular domain; Negative control in panning and ELISA; also called negative control-Fc
T1 sequence (looked up): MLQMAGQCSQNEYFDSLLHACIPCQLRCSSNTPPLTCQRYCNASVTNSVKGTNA
Test: ELISA, wells coated with BCMA-Fc (negative control), monoclonal scFv supernatant, anti-HA HRP detection, OD (450-650nm)
Procedure: Specifically, 100 ng per well of recombinant human ROR1-Fc prepared in Embodiment 1-1 or FBMA-Fc was placed in a 96-well microtiter plate (Nunc-Immuno Plate, NUNC, USA), which was coated overnight at 4° C. BCMA-Fc is the protein used as a negative control, a recombinant protein where the extracellular domain of human BCMA protein is linked to human Fc. 200 μL each of 3% BSA was placed in each well, and blocked for 2 hours at 37° C.
The monoclonal phage supernatant was prepared by mixing 1:1 with 3% BSA, and 100 μL each of this mixture was loaded into the wells and reacted for 2 hours at 37° C. After washing 5 times with 300 μL PBST, anti-HA HRP binding antibody was added, reacted for 1 hour at 37° C., then washed 5 times with PBST. 100 μL TMB (Tetramethylbenzidine, Sigma, T0440) was added for color development, and then 50 μL 1N H2SO₄ was added to stop the reaction. Absorbance was measured at 450 nm and 650 nm, and clones where the absorbance at 450 nm and 650 nm was […] when coated with 1 /mL ROR1 were screened (FIG. 1)

Binder	binding result
anti-ROR1 monoclonal phage antibody AB4 (soluble scFv) (scFv, V domains shown, Tested as soluble scFv in culture supernatant, detected through an HA tag) VH: EVQLLESGGGLVQPGGSLRLSCAASGFTFSSYDMSWVRQAPGKGLEWVSWISPDSGSIYYADSVKGRFTISRDNSKNTLYLQMNSLRAEDTAVYYCARPTGRFDYWGQGTLVTVSS VL: QSVLTQPPSASGTPGQRVTISCSGSSSNIGNNNVNWYQQLPGTAPKLLIYYDNKRPSGVPDRFSGSKSGTSASLAISGLRSEDEADYYCGTWDASLSGYVFGGGTKLTVLG	no binding
anti-ROR1 monoclonal phage antibody D2B12 (soluble scFv) (scFv, V domains shown, Tested as soluble scFv in culture supernatant, detected through an HA tag) VH: EVQLLESGGGLVQPGGSLRLSCAASGFTFSNYDMSWVRQAPGKGLEWVSSISPSSGSSIYYADSVKGRFTISRDNSKNTLYLQMNSLRAEDTAVYYCAKAPGWCQAPSCYYDNAMDVWGQGTLVTVSS VL: QSVLTQPPSASGTPGQRVTISCSGSSSNIGNNDVSWYQQLPGTAPKLLIYDDSQRPSGVPDRFSGSKSGTSASLAISGLRSEDEADYYCGAWDDSLSGYVFGGGTKLTVLG	no binding
anti-ROR1 monoclonal phage antibody A2F2 (soluble scFv) (scFv, V domains shown, Tested as soluble scFv in culture supernatant, detected through an HA tag) VH: EVQLLESGGGLVQPGGSLRLSCAASGFTFSDYYMSWVRQAPGKGLEWVSSISPDGSNTYYADSVKGRFTISRDNSKNTLYLQMNSLRAEDTAVYYCAKNLRAFDYWGQGTLVTVSS VL: QSVLTQPPPASGTPGQRVTISCSGSSSNIGSNTVYWYQQLPGTAPKLLIYANSQRPSGVPDRFSGSKSGTSASLAISGLRSEDEADYYCGSWDYSLSGYVFGGGTKLTVLG	no binding
anti-ROR1 monoclonal phage antibody DG6 (soluble scFv) (scFv, V domains shown, Tested as soluble scFv in culture supernatant, detected through an HA tag) VH: EVQLLESGGGLVQPGGSLRLSCAASGFTFSDYDMSWVRQAPGKGLEWVSVISPDGGSIYYADSVKGRFTISRDNSKNTLYLQMNSLRAEDTAVYYCARDVVECNMNPCSYDNAMDVWGQGTLVTVSS VL: QSVLTQPPSASGTPGQRVTISCSGSSSNIGSNYVSWYQQLPGTAPKLLIYDDSHRPSGVPDRFSGSKSGTSASLAISGLRSEDEADYYCGAWDDSLSGYVFGGGTKLTVLG	no binding
anti-ROR1 monoclonal phage antibody CC9 (soluble scFv) (scFv, V domains shown, Tested as soluble scFv in culture supernatant, detected through an HA tag) VH: EVQLLESGGGLVQPGGSLRLSCAASGFTFSSYDMSWVRQAPGKGLEWVSGISHGSGNKYYADSVKGRFTISRDNSKNTLYLQMNSLRAEDTAVYYCAKRLSLRRRPSYYSDNAMDVWGQGTLVTVSS VL: QSVLTQPPSASGTPGQRVTISCTGSSSNIGNNAVNWYQQLPGTAPKLLIYYDSNRPSGVPDRFSGSKSGTSASLAISGLRSEDEADYYCGAWDDSLSGYVFGGGTKLTVLG	no binding
anti-ROR1 monoclonal phage antibody BA6 (soluble scFv) (scFv, V domains shown, Tested as soluble scFv in culture supernatant, detected through an HA tag) VH: EVQLLESGGGLVQPGGSLRLSCAASGFTFSNYDMSWVRQAPGKGLEWVSAIYHSGSSKYYADSVKGRFTISRDNSKNTLYLQMNSLRAEDTAVYYCARGGNGAWDTGFDYWGQGTLVTVSS VL: QSVLTQPPSASGTPGQRVTISCSGSSSNIGSNDVSWYQQLPGTAPKLLIYYDNNRPSGVPDRFSGSKSGTSASLAISGLRSEDEADYYCGAWDDSLSGYVFGGGTKLTVLG	no binding
anti-ROR1 monoclonal phage antibody C2E3 (soluble scFv) (scFv, V domains shown, Tested as soluble scFv in culture supernatant, detected through an HA tag) VH: EVQLLESGGGLVQPGGSLRLSCAASGFTFSNYAMSWVRQAPGKGLEWVSSISHNSGSTYYADSVKGRFTISRDNSKNTLYLQMNSLRAEDTAVYYCAKFISARKSLGRSYSNGMDVWGQGTLVTVSS VL: QSVLTQPPSASGTPGQRVTISCTGSSSNIGSNDVTWYQQLPGTAPKLLIYADSKRPSGVPDRFSGSKSGTSASLAISGLRSEDEADYYCGTWDYSLSGYVFGGGTKLTVLG	no binding
anti-ROR1 monoclonal phage antibody A2F3 (soluble scFv) (scFv, V domains shown, Tested as soluble scFv in culture supernatant, detected through an HA tag) VH: EVQLLESGGGLVQPGGSLRLSCAASGFTFSSYDMSWVRQAPGKGLEWVSWISPGGGSKYYADSVKGRFTISRDNSKNTLYLQMNSLRAEDTAVYYCARVNGRFDYWGQGTLVTVSS VL: QSVLTQPPSASGTPGQRVTISCSGSSSNIGNNNVSWYQQLPGTAPKLLIYADSHRPSGVPDRFSGSKSGTSASLAISGLRSEDEADYYCATWDYSLSGYVFGGGTKLTVLG	no binding
